Assay results as given in patent US20150344570A1 (published 2015).

T1: FcγRIIb (human, UniProt P31994 43-217)
T1 construct: extracellular domain; also called FcgRIIb; 2b
T1 sequence (looked up): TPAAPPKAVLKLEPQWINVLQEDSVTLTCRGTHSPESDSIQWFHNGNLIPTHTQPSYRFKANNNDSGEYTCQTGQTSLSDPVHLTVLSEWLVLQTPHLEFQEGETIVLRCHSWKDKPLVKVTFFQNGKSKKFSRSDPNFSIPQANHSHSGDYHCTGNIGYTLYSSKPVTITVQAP


Assays:
FcγRIIIa = target: T2, FcγRIIIa (human, UniProt P08637 17-208); assay: SPR (Biacore), relative binding
T2 construct: extracellular domain; also called FcgRIIIa; 3a

FcγRIIb = target: T1, FcγRIIb; assay: SPR (Biacore), relative binding

T2 sequence (P08637 17-208): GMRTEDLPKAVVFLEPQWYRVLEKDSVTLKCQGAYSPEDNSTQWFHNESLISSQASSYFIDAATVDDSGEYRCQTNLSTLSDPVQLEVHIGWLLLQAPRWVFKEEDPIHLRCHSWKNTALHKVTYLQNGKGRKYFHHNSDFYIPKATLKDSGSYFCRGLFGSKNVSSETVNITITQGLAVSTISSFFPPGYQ

| He/Con_3a (FcγRIIIa) | He/Con_2b (FcγRIIb) | Binder |
| --- | --- | --- |
| 96.9 % of GpH7-A5/GpH7-B3/GpL16-k0 | 100 % of GpH7-A5/GpH7-B3/GpL16-k0 | GpH7-A5/GpH7-B3 variant S337_08L/GpL16-k0 (antibody, human IgG1, kappa, mutation in the GpH7-B3 chain only; also called He Ab) heavy 1: not shown heavy 2: not shown light: DIVMTQSPLSLPVTPGEPASISCQASESLVHSNRNTYLHWYLQKPGQSPQLLIYKVSNRFSGVPDRFSGSGSGTDFTLKISRVEAEDVGVYYCSQNTHVPPTFGQGTKVEIERTVAAPSVFIFPPSDEQLKSGTASVVCLLNNFYPREAKVQWKVDNALQSGNSQESVTEQDSKDSTYSLSSTLTLSKADYEKHKVYACEVTHQGLSSPVTKSFNRGEC |
| 96 % of GpH7-A5/GpH7-B3/GpL16-k0 | 103 % of GpH7-A5/GpH7-B3/GpL16-k0 | GpH7-A5/GpH7-B3 variant T335_04F/GpL16-k0 (antibody, human IgG1, kappa, mutation in the GpH7-B3 chain only; also called He Ab) heavy 1: not shown heavy 2: not shown light: DIVMTQSPLSLPVTPGEPASISCQASESLVHSNRNTYLHWYLQKPGQSPQLLIYKVSNRFSGVPDRFSGSGSGTDFTLKISRVEAEDVGVYYCSQNTHVPPTFGQGTKVEIERTVAAPSVFIFPPSDEQLKSGTASVVCLLNNFYPREAKVQWKVDNALQSGNSQESVTEQDSKDSTYSLSSTLTLSKADYEKHKVYACEVTHQGLSSPVTKSFNRGEC |
| 98.8 % of GpH7-A5/GpH7-B3/GpL16-k0 | 102 % of GpH7-A5/GpH7-B3/GpL16-k0 | GpH7-A5/GpH7-B3 variant T335_18N/GpL16-k0 (antibody, human IgG1, kappa, mutation in the GpH7-B3 chain only; also called He Ab) heavy 1: not shown heavy 2: not shown light: DIVMTQSPLSLPVTPGEPASISCQASESLVHSNRNTYLHWYLQKPGQSPQLLIYKVSNRFSGVPDRFSGSGSGTDFTLKISRVEAEDVGVYYCSQNTHVPPTFGQGTKVEIERTVAAPSVFIFPPSDEQLKSGTASVVCLLNNFYPREAKVQWKVDNALQSGNSQESVTEQDSKDSTYSLSSTLTLSKADYEKHKVYACEVTHQGLSSPVTKSFNRGEC |

The next lines start with the binder.

| Binder | He/Con_3a (FcγRIIIa) | He/Con_2b (FcγRIIb) |
| --- | --- | --- |
| GpH7-A5/GpH7-B3 variant N325_04F/GpL16-k0 (antibody, human IgG1, kappa, mutation in the GpH7-B3 chain only; also called He Ab) heavy 1: not shown heavy 2: not shown light: DIVMTQSPLSLPVTPGEPASISCQASESLVHSNRNTYLHWYLQKPGQSPQLLIYKVSNRFSGVPDRFSGSGSGTDFTLKISRVEAEDVGVYYCSQNTHVPPTFGQGTKVEIERTVAAPSVFIFPPSDEQLKSGTASVVCLLNNFYPREAKVQWKVDNALQSGNSQESVTEQDSKDSTYSLSSTLTLSKADYEKHKVYACEVTHQGLSSPVTKSFNRGEC | 20.7 % of GpH7-A5/GpH7-B3/GpL16-k0 | 143 % of GpH7-A5/GpH7-B3/GpL16-k0 |
| GpH7-A5/GpH7-B3 variant N325_09D/GpL16-k0 (antibody, human IgG1, kappa, mutation in the GpH7-B3 chain only; also called He Ab) heavy 1: not shown heavy 2: not shown light: DIVMTQSPLSLPVTPGEPASISCQASESLVHSNRNTYLHWYLQKPGQSPQLLIYKVSNRFSGVPDRFSGSGSGTDFTLKISRVEAEDVGVYYCSQNTHVPPTFGQGTKVEIERTVAAPSVFIFPPSDEQLKSGTASVVCLLNNFYPREAKVQWKVDNALQSGNSQESVTEQDSKDSTYSLSSTLTLSKADYEKHKVYACEVTHQGLSSPVTKSFNRGEC | 48 % of GpH7-A5/GpH7-B3/GpL16-k0 | 124 % of GpH7-A5/GpH7-B3/GpL16-k0 |
| GpH7-A5/GpH7-B3 variant N325_20W/GpL16-k0 (antibody, human IgG1, kappa, mutation in the GpH7-B3 chain only; also called He Ab) heavy 1: not shown heavy 2: not shown light: DIVMTQSPLSLPVTPGEPASISCQASESLVHSNRNTYLHWYLQKPGQSPQLLIYKVSNRFSGVPDRFSGSGSGTDFTLKISRVEAEDVGVYYCSQNTHVPPTFGQGTKVEIERTVAAPSVFIFPPSDEQLKSGTASVVCLLNNFYPREAKVQWKVDNALQSGNSQESVTEQDSKDSTYSLSSTLTLSKADYEKHKVYACEVTHQGLSSPVTKSFNRGEC | 32.8 % of GpH7-A5/GpH7-B3/GpL16-k0 | 169 % of GpH7-A5/GpH7-B3/GpL16-k0 |
| GpH7-A5/GpH7-B3 variant P331_20W/GpL16-k0 (antibody, human IgG1, kappa, mutation in the GpH7-B3 chain only; also called He Ab) heavy 1: not shown heavy 2: not shown light: DIVMTQSPLSLPVTPGEPASISCQASESLVHSNRNTYLHWYLQKPGQSPQLLIYKVSNRFSGVPDRFSGSGSGTDFTLKISRVEAEDVGVYYCSQNTHVPPTFGQGTKVEIERTVAAPSVFIFPPSDEQLKSGTASVVCLLNNFYPREAKVQWKVDNALQSGNSQESVTEQDSKDSTYSLSSTLTLSKADYEKHKVYACEVTHQGLSSPVTKSFNRGEC | 78.6 % of GpH7-A5/GpH7-B3/GpL16-k0 | 111 % of GpH7-A5/GpH7-B3/GpL16-k0 |
| GpH7-A5/GpH7-B3 variant P331_07I/GpL16-k0 (antibody, human IgG1, kappa, mutation in the GpH7-B3 chain only; also called He Ab) heavy 1: not shown heavy 2: not shown light: DIVMTQSPLSLPVTPGEPASISCQASESLVHSNRNTYLHWYLQKPGQSPQLLIYKVSNRFSGVPDRFSGSGSGTDFTLKISRVEAEDVGVYYCSQNTHVPPTFGQGTKVEIERTVAAPSVFIFPPSDEQLKSGTASVVCLLNNFYPREAKVQWKVDNALQSGNSQESVTEQDSKDSTYSLSSTLTLSKADYEKHKVYACEVTHQGLSSPVTKSFNRGEC | 66 % of GpH7-A5/GpH7-B3/GpL16-k0 | 114 % of GpH7-A5/GpH7-B3/GpL16-k0 |
| GpH7-A5/GpH7-B3 variant P331_03V/GpL16-k0 (antibody, human IgG1, kappa, mutation in the GpH7-B3 chain only; also called He Ab) heavy 1: not shown heavy 2: not shown light: DIVMTQSPLSLPVTPGEPASISCQASESLVHSNRNTYLHWYLQKPGQSPQLLIYKVSNRFSGVPDRFSGSGSGTDFTLKISRVEAEDVGVYYCSQNTHVPPTFGQGTKVEIERTVAAPSVFIFPPSDEQLKSGTASVVCLLNNFYPREAKVQWKVDNALQSGNSQESVTEQDSKDSTYSLSSTLTLSKADYEKHKVYACEVTHQGLSSPVTKSFNRGEC | 73.2 % of GpH7-A5/GpH7-B3/GpL16-k0 | 119 % of GpH7-A5/GpH7-B3/GpL16-k0 |
